Residue numbers refer to the chain shown, from its start.
T1: Nectin-like-2 (UniProt Q9BY67 45-374, limits assumed)
T1 construct: Bought recombinant protein; also called CADM1; IgSF4
T1 sequence (looked up): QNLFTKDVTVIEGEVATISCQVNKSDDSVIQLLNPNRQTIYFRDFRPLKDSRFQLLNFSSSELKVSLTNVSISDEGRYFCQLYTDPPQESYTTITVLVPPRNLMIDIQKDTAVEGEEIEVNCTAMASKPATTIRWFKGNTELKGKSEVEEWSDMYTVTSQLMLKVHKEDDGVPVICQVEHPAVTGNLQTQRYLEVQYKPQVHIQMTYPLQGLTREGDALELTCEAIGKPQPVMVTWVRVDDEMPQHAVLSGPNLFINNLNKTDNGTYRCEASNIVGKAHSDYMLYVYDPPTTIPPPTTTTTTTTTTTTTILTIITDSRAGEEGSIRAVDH

T2: Nectin-like-4 (UniProt Q8NFZ8 21-324, limits assumed)
T2 construct: Bought recombinant protein; also called CADM4; IgSF4C
T2 sequence (looked up): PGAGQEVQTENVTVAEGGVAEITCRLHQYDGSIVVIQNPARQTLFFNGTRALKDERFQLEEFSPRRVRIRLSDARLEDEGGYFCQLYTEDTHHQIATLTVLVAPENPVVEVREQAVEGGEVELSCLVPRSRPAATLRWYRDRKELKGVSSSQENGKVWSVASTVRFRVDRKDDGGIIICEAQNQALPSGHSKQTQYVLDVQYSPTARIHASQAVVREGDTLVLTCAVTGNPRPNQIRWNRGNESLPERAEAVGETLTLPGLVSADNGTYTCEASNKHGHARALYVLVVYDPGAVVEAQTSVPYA

T3: Nectin-2 (UniProt Q92692 32-360, limits assumed)
T3 construct: Bought recombinant protein; also called CD112; PVRL-2
T3 sequence (looked up): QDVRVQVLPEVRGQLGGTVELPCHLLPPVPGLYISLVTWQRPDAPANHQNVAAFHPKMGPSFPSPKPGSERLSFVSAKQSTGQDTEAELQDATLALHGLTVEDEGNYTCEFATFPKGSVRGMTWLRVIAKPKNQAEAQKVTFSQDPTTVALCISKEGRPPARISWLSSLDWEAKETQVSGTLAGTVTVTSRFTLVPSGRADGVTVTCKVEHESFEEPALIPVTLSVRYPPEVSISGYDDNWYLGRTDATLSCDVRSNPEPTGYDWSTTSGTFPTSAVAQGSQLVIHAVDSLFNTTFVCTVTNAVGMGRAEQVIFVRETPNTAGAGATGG

T4: Nectin-like-3 (UniProt Q8N3J6 25-367, limits assumed)
T4 construct: Bought recombinant protein; also called CADM2; IgSF4D
T4 sequence (looked up): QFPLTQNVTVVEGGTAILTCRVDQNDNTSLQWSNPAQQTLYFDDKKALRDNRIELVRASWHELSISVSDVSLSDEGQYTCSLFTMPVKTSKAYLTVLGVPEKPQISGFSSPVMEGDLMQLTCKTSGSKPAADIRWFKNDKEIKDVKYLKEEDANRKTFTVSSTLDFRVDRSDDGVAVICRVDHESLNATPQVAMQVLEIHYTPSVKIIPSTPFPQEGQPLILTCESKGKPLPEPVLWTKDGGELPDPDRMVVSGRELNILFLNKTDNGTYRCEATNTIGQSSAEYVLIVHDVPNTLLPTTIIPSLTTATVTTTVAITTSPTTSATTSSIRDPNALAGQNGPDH

T5: recombinant human Nectin-4 protein (human, UniProt Q96NY8 32-349)
T5 construct: Prepared in-house (Jiangsu Mabwell) by transient transfection of CHO cells; also called PVRL-4; PRR-4
T5 sequence: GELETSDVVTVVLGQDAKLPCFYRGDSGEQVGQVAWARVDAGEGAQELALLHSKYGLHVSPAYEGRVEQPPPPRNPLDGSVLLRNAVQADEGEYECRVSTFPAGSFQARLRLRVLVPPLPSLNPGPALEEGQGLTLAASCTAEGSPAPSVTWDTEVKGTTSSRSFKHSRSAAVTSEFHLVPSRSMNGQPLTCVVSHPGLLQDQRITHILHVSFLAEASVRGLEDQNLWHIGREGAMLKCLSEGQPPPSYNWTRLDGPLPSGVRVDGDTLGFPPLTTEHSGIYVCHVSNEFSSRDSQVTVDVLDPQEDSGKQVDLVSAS

B1: Antibody MM11 (antibody, mouse IgG1, kappa, V domains shown)
VH: DVQLQESGPGLVKPSQSLSLTCSVTGYSITSNFYWNWIRQFPGNRLEWMGYISYDGSNNYNPSLKNRISISRDTSKNQFFLKLNSVTTEDTATYYCVRADYWGQGTLVTVSA
VL: DTVMTQTPLSLPVSLGDQASISCRSSQSLESSDGHAYLNWYLQKPGQSPQLLIYRVSNRFSGVLHRFSGSGSGTDFTLKISRVEAEDLGVYFCLQFTHVPFTFGSGTKLEIKR
notes: Mouse monoclonal antibody from hybridoma; also called Nectin-4 mouse monoclonal antibody MM11; mouse antibody MM11
B2: Antibody R012 (antibody, V domains shown)
VH: SKSVEESGGRLVTPGTPLTLTCTVSGFSLSTYAMSWVRQAPGKGLEYIGIISGRGTTYYASWLKGRFTISKTSTTVDLKITSPTTEDTATYFCARDAGISDVYTGYFNLWGQGTLVTVSS
VL: QPVLAQLPSASAALGASAKLTCTLSSAHRTYTIAWYQQQQGEAPRYLMMLKSDGSYTKGTGVPDRFSGSSSGADRYLIISSVQAADEADYYCGADDSGGYVFGGGTQLTVTG
notes: Rabbit monoclonal antibody from phage display; also called Nectin-4 rabbit monoclonal antibody R012; rabbit antibody R012
B3: Antibody R036 (antibody, V domains shown)
VH: SQSVEESGGRLVTPGTPLTLTCTVSGFSLSSYAMSWVRQAPGKGLEYIGIIGGRGTTYYAIWAKGRFTISKTSTTVDLKITSPTTEDTATYFCARDAGTTYVGTTYVATGYFNLWGQGTLVTVSS
VL: B2 VL with A5T, L7P, R29K, M49I, K58R, A85D
notes: Rabbit monoclonal antibody from phage display; also called Nectin-4 rabbit monoclonal antibody R036; rabbit antibody R036

Molecular target: T6, Nectin-3 (UniProt Q9NQS3 58-404, limits assumed)
T6 construct: Bought recombinant protein; also called CD113; PVRL-3
Assay: ELISA, coated antigen, 0 ng/ml antibody (blank control)
Method: (§1) Coating: Nectin-1, Nectin-2, Nectin-3, Nectin-4, Nectin-like-1, Nectin-like-2, Nectin-like-3, Nectin-like-4, and Nectin-like-5 were diluted to 5 μg/ml in coating buffer (carbonate buffer, pH 9.6) respectively. A 96-well plate was coat with 100 μl per well and incubated overnight at 2-8° C.;
(§2) Sample loading: The plate was taken out, patted dry, and washed twice with 200 μl/well of PBST, then patted dry. The Nectin-4 antibodies prepared in Example 1 (antibody MM11, antibody R012, and antibody R036) were diluted with 1% BSA/PBST to concentrations of 10 μg/ml, 1 μg/ml, 100 ng/ml, and 10 ng/ml, respectively. 1% BSA/PBST solution for dilution was set as a blank control. 100 μl per well was added to the 96-well plate, and incubated at room temperature for 2 hours;
(§3) Reaction termination and plate reading: 100 μl/well of 1 mol/L H3PO4 was added to terminate the reaction and the plated was read. The absorbances of wells in the plate at 450 nm with 650 nm as reference wavelength were read and recorded as OD_{450 nm-650 nm}.

T6 sequence (Q9NQS3 58-404 limits assumed): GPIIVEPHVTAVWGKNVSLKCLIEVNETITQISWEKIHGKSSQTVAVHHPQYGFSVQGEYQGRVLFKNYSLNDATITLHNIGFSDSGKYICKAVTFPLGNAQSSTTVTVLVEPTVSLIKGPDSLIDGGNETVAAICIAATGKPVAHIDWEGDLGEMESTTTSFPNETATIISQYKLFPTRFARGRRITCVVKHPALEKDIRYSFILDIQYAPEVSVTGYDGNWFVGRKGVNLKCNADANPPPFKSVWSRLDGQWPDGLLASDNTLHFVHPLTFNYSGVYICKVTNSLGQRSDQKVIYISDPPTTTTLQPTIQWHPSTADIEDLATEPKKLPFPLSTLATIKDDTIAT

First: B1
Second: B2
The OD detection value of the first is lower: 0.006 OD450 nm-650 nm for the first, 0.008 OD450 nm-650 nm for the second.

B3 was tested, and the OD detection value was 0.007 OD450 nm-650 nm.

Molecular target: T1, Nectin-like-2
Assay: as above
Method: as §1, §2, §3

Compared with B1, B2 is higher in OD detection value: 0.006 OD450 nm-650 nm for the first, 0.008 OD450 nm-650 nm for the second.

For B3, the OD detection value was 0.007 OD450 nm-650 nm.

Molecular target: T2, Nectin-like-4
Assay: ELISA, coated antigen, antibody at 1000 ng/ml
Method: as §1, §2, §3

Compared with B1, B2 is lower in OD detection value: 0.01 OD450 nm-650 nm for the first, 0.007 OD450 nm-650 nm for the second.

With B3 the OD detection value was 0.007 OD450 nm-650 nm.

Molecular target: T3, Nectin-2
Assay: ELISA, coated antigen, antibody at 1000 ng/ml
Method: as §1, §2, §3

First: B1
Second: B2
The OD detection value of the first is higher: 0.008 OD450 nm-650 nm for the first, 0.007 OD450 nm-650 nm for the second.

Work on B3 yielded an OD detection value of 0.007 OD450 nm-650 nm.

Molecular target: T6, Nectin-3
Assay: ELISA, coated antigen, antibody at 1000 ng/ml
Method: as §1, §2, §3

Going from B1 to B2, the OD detection value falls from 0.008 OD450 nm-650 nm to 0.007 OD450 nm-650 nm.

B3 was tested, and the OD detection value was 0.007 OD450 nm-650 nm.

Molecular target: T4, Nectin-like-3
Assay: ELISA, coated antigen, antibody at 1000 ng/ml
Method: as §1, §2, §3

Compared with B1, B2 is lower in OD detection value: 0.029 OD450 nm-650 nm for the first, 0.008 OD450 nm-650 nm for the second.

B3 gave an OD detection value of 0.007 OD450 nm-650 nm.

Molecular target: T5, recombinant human Nectin-4 protein
Assay: ELISA, coated antigen, antibody at 1000 ng/ml
Method: as §1, §2, §3

Compared with B1, B2 is lower in OD detection value: 2.05 OD450 nm-650 nm for the first, 1.56 OD450 nm-650 nm for the second.

Work on B3 yielded an OD detection value of 1.64 OD450 nm-650 nm.
